According to paper doi:10.1101/2022.08.19.504532 (bioRxiv, 2022):
Where “and” joins values, the source holds several entries; their conditions need not be identical. Equal values may be shown once.

Key:
[1] = target: 3xFLAG-BIRC6 (full-length, wild type) (human) (UniProt Q9NR09); assay: FRET or BRET
[2] = target: FLAG-BIRC6 (full-length baculoviral IAP repeat-containing protein 6) (human) (UniProt Q9NR09); assay: cryo-EM structure; conditions: remark: other sources report otherwise
[3] = target: 3xFLAG-BIRC6 ΔHelix (aa1616-1666 removed) (human, UniProt Q9NR09 1-4857, ΔHelix, aa1616-1666 removed); assay: FRET or BRET
[4] = target: 3xFLAG-BIRC6 BIRmut (C328S/C331S) (human, UniProt Q9NR09 1-4857, C328S | C331S); assay: FRET or BRET
[5] = target: 3xFLAG-BIRC6 (full-length, wild type) (human, UniProt Q9NR09 1-4857); assay: FRET or BRET
[6] = target: FLAG-BIRC6 (full-length baculoviral IAP repeat-containing protein 6) (human, UniProt Q9NR09 1-4857); assay: cryo-EM structure
cryo-EM structure = target: the molecule itself; assay: cryo-EM structure

Which Kd [1] does the source give for “BODIPY-labeled caspase-7 (from UniProt P55210 1-303) (enzyme)” here?
The Kd was 4 nM.

“FLAG-BIRC6 (full-length baculoviral IAP repeat-containing protein 6), Q9NR09 1-4857” was tested. Which stoichiometry N [2] did it give?
The stoichiometry N was 2.

B1: BODIPY-labeled Smac-Cys (natural protein)
chain: AVPIAQKSEPHSLSSEALMRRAVSLVTDSTSTFLSQTTYALIEAITEYTKAVYTLTSLYRQYTSLLGKMNSEEEDEVWQVIIGARAEMTSKHQEYLKLETTWMTAVGLSEMAAEAAYQTGADQASITARNHIQLVKLQVEEVHQLSRKAETKLAEAQIEELRQKTQEEGEERAESEQEAYLREDC
modifications: BODIPY FL Maleimide on the introduced cysteine (degree of labeling 0.48)
Which results are given for B1?
Kd [3]: 30 ± 5 nM; Kd [4]: 26 ± 2 nM; Kd [5]: < 2 nM and 2 nM; binding result [5]: binds

B2: Smac-His9 (mature Smac without the N-terminal mitochondrial targeting sequence) (natural protein)
chain: AVPIAQKSEPHSLSSEALMRRAVSLVTDSTSTFLSQTTYALIEAITEYTKAVYTLTSLYRQYTSLLGKMNSEEEDEVWQVIIGARAEMTSKHQEYLKLETTWMTAVGLSEMAAEAAYQTGADQASITARNHIQLVKLQVEEVHQLSRKAETKLAEAQIEELRQKTQEEGEERAESEQEAYLRED
Does B2 bind [6]?
Result: binds

And the “stoichiometry N” value (cryo-EM structure)?
Its value is 2.
